# According to patent publication US20120201826A1 (NOV IMMUNE S A, published 2012):
# T1: recombinant human RANTES (huRANTES, Peprotech) (human, UniProt P13501 24-91)
# T1 sequence: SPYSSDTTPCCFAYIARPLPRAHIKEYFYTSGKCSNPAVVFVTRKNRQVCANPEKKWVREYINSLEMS
# Molecular target: T1, recombinant human RANTES (huRANTES, …)
# Assay: cell-based or functional assay
row,"Chemotaxis IC50 (nM); L1.2 cells expressing hCCR5, 1 nM huRANTES; scFv format",Binder
1,90 nM,C8 scFv (scFv) QVQLVESGGGVVQPGRSLRLSCAASGFTFSSYAMHWVRQAPGKGLEWVAVISYDGSNKYYADSVKGRFTISRDNSKNTLYLQMNSLRAEDTAVYYCARETFPHYYYYYMDVWGRGTLVTVSSSYVLTQPPSVSVAPGQTARITCEGDDTDIGTVNWYQQKPGQAPVLVISEDGYRPSGIPERFSGSNSGNTATLTISRVEAGDEADYYCQFWDVDSDHPVFGGGTQLTVL
2,3.6 nM,CG11 scFv (scFv) QVQLVQSGTEVKKPGATVNVSCKISGHLFTDYYIHWVQQAPGKGLEWVGLIDPKDGEIQYAEKFQARVTITADTSTDTVYMELNSLRSEDTAVYYCATEVLSGIRVFPFDPWGQGTLVTVSSQSVLTQPPSVSGAPGQRVTISCTGSSSNIGAGYDVYWYQQFPGKAPKLLIYDTNNRPPGVPDRFSGSKSGTSASLAISGLQTEDEADYYCQSYDIALSNSNVVFGGGTKLTVL
3,3.8 nM,E7 scFv (scFv) QVQLVQSGAEVKKPGSSVKVSCKISGGISDNYALSWVRQAPGQGLEWMGAVIPLVETTSYAQRFQGRLTITADDSLNTLYMELGSLRSDDTAMYYCAREQVAVGPGPTSNRGPDGLDVWGRGTMVTVSSQSVLTQPPSVSGAPGQRVTISCTGSSSNIGDGYDVHWYQQLPGTAPKLLIYGNSNRPSGVPDRFSGSTSGTSASLAIRGLQSEDEADYYCGTWDDILNGWVFGGGTKLTVL
4,4.3 nM,H11 scFv (scFv) QVQLVQSGAEVKKPGSSVKVSCKASGGISDNYALSWVRQAPGQGLEWMGGFIPLVDTTNYAQRFQGRLTITADDSMSTVYMELRSLRSDDTAMYYCAREQVAVGPGPTSDRGPDGLDVWGQGTMVTVSSQSVLTQPSSVSGAPGHRVTISCTGSNSNLGADYDVHWYQQLPGSAPKLLIYDNNIRPSGVPARFSGSKSGTSASLAITGLQAEDEADYYCQSYDTGLTSSDVIFGGGTKLTVL

# The next lines start with the binder.
row,Binder,"Chemotaxis IC50 (nM); L1.2 cells expressing hCCR5, 1 nM huRANTES; scFv format"
1,D1 scFv (scFv) EVQLVQSGPEVKKPGATVKISCNVSAETFTDYYIHWVKQAPGRGLEWMGLVDSEEDGETLFAETFRGRVALTADRSTNTAYMELRSLRHDDTAVYYCAAEYGEYGFFQSWGQGTLVTVSSQSVLTQPPSVSGAPGQRVTISCTGSSSNIGADYDVNWYQQLPGTSPKLLIYGDINRPSGVPDRFSASKSGTSASLAITGLQAEDEADYYCQSFDNSLSGSVIFGGGTKLTVL,22 nM
2,1D9 scFv (scFv) QVQLVQSGAEVKKPGASVKVSCKVSGYTLTEFAMHWVRQAPGKGLEWMGGFVPEDGETIYAQKFQGRVTMTEDTSTDTAYMELSSLRSEDTAVYYCATDPLYTPGLEPWGQGTTVTVSSSYVLTQPPSVSVAPGQTARITCGGNNIESKSVHWYQQKPGQAPVLVVYDDSDRPSGIPERFSGSNSGNTATLTISRVEAGDEADYYCQVWDSNTDHWVFGGGTKLTVL,0.82 nM
3,1E4 scFv (scFv) QVQLVQSGAEVKKPGASVKVSCKVSGYTLTEFAMHWVRQAPGKGLEWMGGFVPEDGETIYAQKFQGRVTMTEDTSTDTAYMELSSLRSEDTAVYYCATDPLYEGSFSVWGQGTTVTVSSSYVLTQPPSVSVAPGQTARITCGGNNIESKSVHWYQQKPGQAPVLVVYDDSDRPSGIPERFSGSNSGNTATLTISRVEAGDEADYYCQVWDSNTDHWVFGGGTKLTVL,1.25 nM
4,3E7 scFv (scFv) QVQLVQSGAEVKKPGASVKVSCKVSGYTLNDFAMHWVRQAPGKGLEWMGGYVPEDGDTIYAQKFQGRVTMTEDTSTDTAYMELSSLRSEDTAVYYCATDPLYPPGLSPWGQGTTVTVSSSYVLTQPPSVSVAPGQTARITCGGNNIESKSVHWYQQKPGQAPVLVVYDDSDRPSGIPERFSGSNSGNTATLTISRVEAGDEADYYCQVWDSNTDHWVFGGGTKVTVL,0.47 nM

# Molecular target: T1, recombinant human RANTES (huRANTES, …)
# Assay: cell-based or functional assay
# Remark: another data set of the same source
"Chemotaxis IC50 (nM), 1 nM huRANTES; L1.2-hCCR5 cells; IgG1 format","Calcium Flux IC50 (nM), 10 nM rhuRANTES; L1.2-hCCR5 cells; IgG1 format","Chemotaxis IC50 (nM), 0.2 nM huRANTES; L1.2-hCCR5 cells; IgG1 format",Binder
29 nM,7.7 nM,,"BG11 antibody, IgG1 format (antibody, V domains shown) VH: QVQLVQSGAEVKKPGASVKVSCKVSGYTLTELSMHWVRQAPGKGLEWMGGFDPEDGETIYAQKFQGRVTMTEDTSTDTAYMELSSLRSEDTAVYYCATYSGSSGWWAFDIWGQGTMVTVSS VL: SSELTQDPAVSVALGQTVRITCQGDSLRSYYASWYQQKPGQAPVLVIYGKNNRPSGIPDRFSGSSSGNTASLTITGAQAEDEADYYCQTWGTGIWVFGGGTKLTVL"
16 nM,,,"E10 antibody, IgG1 format (antibody, V domains shown) VH: QVQLVESGGGVVQPGRSLRLSCAASGFTFSSYAMHWVRQAPGKGLEWVAVISYDGSNKYYADSVKGRFSISRDNSKNTLYLQMNSLRAEDTAVYYCARETFPHYYYYYMDVWGKGTMVTVSS VL: SYVLTQPPSVSVAPGQTARISCGGGNFDDEGVHWYQQTPGQAPVLVVYDDTGRPSGIPERFSGSSSGNTATLTISRVEAGDEADYYCQAWDSSNDHPVFGGGTQLTVL"
1.1 nM,,0.31 nM,"7B5 antibody, IgG1 format (antibody, V domains shown) VH: QVQLVQSGAEVKKPGASVKVSCKVSGYTLNDFAMHWVRQAPGKGLEWMGGYVPEDGDTIYAQKFQGRVTMTEDTSTDTAYMELSSLRSEDTAVYYCATDPLYSGSLSYWGQGTTVTVSS VL: SYVLTQPPSVSVAPGQTARITCGGNNIESKSVHWYQQKPGQAPVLVVYDDSDRPSGIPERFSGSNSGNTATLTISRVEAGDEADYYCQVWDSGPVWWIFGGGTKLTVL"
0.74 nM,,0.31 nM,"6A8 antibody, IgG1 format (antibody, V domains shown) VH: QVQLVQSGAEVKKPGASVKVSCKVSGYTLNDFAMHWVRQAPGKGLEWMGGYVPEDGDTIYAQKFQGRVTMTEDTSTDTAYMELSSLRSEDTAVYYCATDPLYPPGLQPWGQGTTVTVSS VL: SYVLTQPPSVSVAPGQTARITCGGNNIESKSVHWYQQKPGQAPVLVVYDDSDRPSGIPERFSGSNSGNTATLTISRVEAGDEADYYCQVWDSNTDHWVFGGGTKVTVL"
17 nM,,,"C10 antibody, IgG1 format (antibody, V domains shown) VH: not shown VL: SYVLTQPPSVSVAPGKTASISCGGDNIGGQNVHWYQQKPGQAPVLVIYYDTDRPSGIPERFSGSNSGNTATLSISRVEAADEADYYCQVWDVDSDHPWVFGGGTKLTVL"

# Further lines, the binder ahead of its results:
Binder,"Chemotaxis IC50 (nM), 1 nM huRANTES; L1.2-hCCR5 cells; IgG1 format","Calcium Flux IC50 (nM), 10 nM rhuRANTES; L1.2-hCCR5 cells; IgG1 format","Chemotaxis IC50 (nM), 0.2 nM huRANTES; L1.2-hCCR5 cells; IgG1 format"
"A5 antibody, IgG1 format (antibody, V domains shown) VH: QVQLVQSGAEVKKPGASVKVSCKVSGYALSELSIHWVRQAPGKGLEWMSYIDPEDGEPIYAQKFQGRATMTEDSSTDTAYMEMGSLTSDDTAVYYCAGVTGSTSDAFDLWGRGTLVTVSS VL: SYVLTQDPSVSVAPGQTARITCGGANLWGLGVHWYQQKSGQAPVLVVSDNSDRASGIPERFSGSNSGTTATLTLSRVEVGDEADYYCQVWDSSSDHWVFGGRTKLTVL",13.2 nM,,
"E6 antibody, IgG1 format (antibody, V domains shown) VH: QVQLVQSGAEVEKPGASVKVSCRVSGYPLTEIAIHWVRQAPGKGLEWMGSFEPEDAEAIYAQRFQGRVTMTEETSANTAYMELSSLRSEDTAVYFCATDPYYASSGSNYMEVWGRGTLVTVSS VL: NFMLTQPHSVSESPGKTVTISCTGSGGSISSNYVQWYRQRPGSAPSTVIYEDDQRPSGVPDRISGSIDSSSNSASLTISGLTTEDEADYYCHSYDGNNRWVFGGGTKLTVL",14 nM,12.7 nM,
"2D1 antibody, IgG1 format (antibody, V domains shown) VH: QVQLVQSGAEVKKPGASVKVSCKVSGYTLNDFAMHWVRQAPGKGLEWMGGYVPEDGDTIYAQKFQGRVTMTEDTSTDTAYMELSSLRSEDTAVYYCATDPLYSGSLSYWGQGTTVTVSS VL: SYVLTQPPSVSVAPGQTARITCGGNNIESKSVHWYQQKPGQAPVLVVYDDSDRPSGIPERFSGSNSGNTATLTISRVEAGDEADYYCQVWDSNTDHWVFGGGTKVTVL",1.7 nM,,1.3 nM
"4D8 antibody, IgG1 format (antibody, V domains shown) VH: QVQLVQSGAEVKKPGASVKVSCKVSGYTLNDFAMHWVRQAPGKGLEWMGGYVPEDGDTIYAQKFQGRVTMTEDTSTDTAYMELSSLRSEDTAVYYCATDPLYTPGLYVWGQGTTVTVSS VL: SYVLTQPPSVSVAPGQTARITCGGNNIESKSVHWYQQKPGQAPVLVVYDDSDRPSGIPERFSGSNSGNTATLTISRVEAGDEADYYCQVWDSNTDHWVFGGGTKVTVL",1.16 nM,,0.22 nM
"3E7 antibody, IgG1 format (antibody, V domains shown) VH: QVQLVQSGAEVKKPGASVKVSCKVSGYTLNDFAMHWVRQAPGKGLEWMGGYVPEDGDTIYAQKFQGRVTMTEDTSTDTAYMELSSLRSEDTAVYYCATDPLYPPGLSPWGQGTTVTVSS VL: SYVLTQPPSVSVAPGQTARITCGGNNIESKSVHWYQQKPGQAPVLVVYDDSDRPSGIPERFSGSNSGNTATLTISRVEAGDEADYYCQVWDSNTDHWVFGGGTKVTVL",0.68 nM,,0.25 nM
"5E1 antibody, IgG1 format (antibody, V domains shown) VH: QVQLVQSGAEVKKPGASVKVSCKVSGYTLNDFAMHWVRQAPGKGLEWMGGYVPEDGDTIYAQKFQGRVTMTEDTSTDTAYMELSSLRSEDTAVYYCATDYLYIPSLSYWGQGTTVTVSS VL: SYVLTQPPSVSVAPGQTARITCGGNNIESKSVHWYQQKPGQAPVLVVYDDSDRPSGIPERFSGSNSGNTATLTISRVEAGDEADYYCQVWDSNTDHWVFGGGTKVTVL",0.82 nM,,0.25 nM
"G2 antibody, IgG1 format (antibody, V domains shown) VH: QVQLVQSGAEVKKPGASVKVSCRASGYALTELSIHWVRQAPGKGLEWMGGFDPEDGETIYAQNFQGRVIMTEDTSTDTAYMELSSLKSEDTAVYYCATDLTGSRDSWGQGTLVTVSS VL: QSVLTQPASVSGSPGQSITISCTGSRSDIGYYNYVSWYQQHPGKVPKLIIYDVTERPSGVSDRFSGSKSANTASLTISGLQAEDEADYYCSSFSSGDTFVVFGGGTKLTVL",18.4 nM,,
